Results as given in the DeepSol protein solubility set.

Experiment: soluble on expression in E. coli; label from the status in PepcDB or PDB records
In the case of “MGSDKIHHHHHHMMIQYPKLTISDRLNQHRERLPLADLQETFKESWTVNEKWQVTFAITDSLAYEQAIKLLDVQNIVHYDGQSYVIIQCTKTVSGGVSVYEVTASHLFYRLANNARQNNVKTGTLTYGLSEAVNFMLDNNDQGLTAKFIGDFPRIKIENLGNSSFNKFLQDYTSKFDASYVIDNQQIIFYSATYLKHQPVIDTLFYQHDVENVKLSLDTTSLANEVRCLGKPIDKSSGNNDSQTKYQVDFTYRDDASIQKWGLQRGDPLSDERFTDQGSMTEYARQTVQAQPIATLTTTAWNVTIKQCETVKLVMPNLDWQTTVALNGYERNPFNQFSLPTITFDNASLAVNDINVAMFKHITNAHNHVGKTMVQLMAALGDIQNGDLITDEDTIDKLNELGGIS”, the “soluble on expression in E. coli” value is reported as “not soluble”.
In the case of “MGSDKIHHHHHHMMLQIPDVLSKAQVAQCRQMMDVADWTDGNATSGHQSALAKRNMQLPEGSPVARQIGDLIQDALGANATFFSAALPLKVFPPLFNRYEGGQAFDNHVDNAIRYLRGTGFRVRSDLSATLFLTEPQDYDGGELVIEDTYGQHRVKLPAGYMVLYPATSLHHVTPVTRGARVSSFFWIQSMVRDEGQRALLFELDTRIQQVAEEMGQKDSGVVGLTGVYHNLLRRWADA”, the “soluble on expression in E. coli” value is reported as “not soluble”.
In the case of “MGSDKIHHHHHHMMPNPLLDIRIGTMVRANLEDPAAYVRQILPLGFESIQPFFWQTLGGKDLPRLAGEIREAIGDADVVVSSLGVFGNPLESGEVDRGVLAAWETVIDNAHLFGASMVSGFTGRLRGKKLTDSLPRFREVWGPLAKRAADKGVRIAFENCAMDGNWAVGDWNIAHNPDAWELMFNELPDDNLGLEWEPCHQLVYLIDPIPQIRKWAPRIFHVHGKDATVRWDVIREHGVFGRLPFVQMRTPGFGDSDWTRVISELRLAGYKGAIDIEGWHDPVYRDDLEITGQARALEYLKQCRGGASYLQNPT”, the “soluble on expression in E. coli” value is reported as “not soluble”.
For “MGSDKIHHHHHHMNAAENGLIPGAANSAGTKAYVARFAGTLADEHFSDFLNTRIKLSSLGVGTFPGGVDDVTDVAVAAIVARALQSGINVVDTGANYRLGRAGRAVGVGIAKAIAAGIQREEFFVVGKGGFLTFPDGRPEDPLTFFREEVAAKGLGKEEDLAQGVHCLSPEYIAWQLDTLRAQTGLGTLDVFLVDQPEVHIPLIGKEQMYRKLTDVFTMLEAAVQANKIRYYGISTFNACRVETDNTLFQSLTSLIGLAEKAAGQGNRHHLRVVQLPFNALMPEAYTRFSQVTGQGNIGSTIQAAFQLKLTIMASHPLGKGLLAREEVPSLQEAMPELADAAQRAIQFVRSTPGIGVTLVGLSTPLHLPDFLAVARQLPLSKERYLAMFEKEQ”, the “soluble on expression in E. coli” value was “not soluble”.
In the case of “MGSDKIHHHHHHMNAIAKHKENLLLDGFTIIDDIYSDEEVQQILAVIENADMSNETFRKSSDLFAIRQFLKEIPEAKELIYNKNLKKVGAELFGTDFFTVKSIYFDKPETSNWYVAYHQDLTISVDTKIDLAGFGPWTVKQNQFAVQPPLEILKNIFTIRIHLDDTNEENGALKVVPGSHAKNIYRPETIDWSVEKEISCNVKKGGIMIMKPLLLHSSGRTTNNKKRRVIHIEFSNQELPVELNWAERLN”, the “soluble on expression in E. coli” value is reported as “not soluble”.
For “MGSDKIHHHHHHMNAPAGGLSPALTPEAVADTTAMATETHILNPRFYTTDFDELDRVDVTPVRKDWDALIAEMKADPNKAHFKKTEAWDRIDWDGMDPALRVEFIDFLVSSCTAEFSGCVLYKEMKRRGSNPDIRELFNYMARDEARHAGFINDALREAGVAVNLGFLTKAKKYTYFRPKFIYYATYLSEKIGYARYITIYRHLEANPEHRFHPIFKWFKEWCNDEFRHGEAFALLMKTDPKLTDTTVNRLWIRFFLTAVYSTMWVRDHARPEFHKALGVDIDWYDQEVYRKTSEIARQIFPVELDIDHPRWKPALRRMNEAFLRIDRGTRRGGIAGRLEKALGGAQALAAFVSLYTIPVRTHTLPENVRLEPSY”, the “soluble on expression in E. coli” value was “not soluble”.
For “MGSDKIHHHHHHMNAVTIFVHGFNGNADSTDHLIHGAQKNGWAQKMLVVKIKNDGAMDFDGELDQQVANPMVQVLFENNRAPERRQVSWMHQLLIKLRQSFGVEQYNGVGHSLGSNVLVNLAIKFGKDSRLPALKKLVTIAGPFNGLHGFLSQDTVKDVMTKSWEPNKRTHHFKKLVRNRHLFPKGAEVLNVIGSVDGILNNDVYVAVDSARAVGYLLDGVAAKVSELMVIGPDGYHCELNRSQNVSREINQFLWDEKYIAQDFKLINSYRADKVYQLAPEELNWAN”, the “soluble on expression in E. coli” value was “not soluble”.
With “MGSDKIHHHHHHMNDPTFYRDGQGQPIQPDSAREAVAWLTQLMSDSVTEQDRREWQRWREASPDNEQAWQHIESVCANLGQLNARAAHQSLSTLNGMQRRSVLKALAILCLTGGAGMAGSRTDVWQSFTADYQTQVGEQRHAVLEDGTTLLLNTQTALNVAYGDDLRQLTLIRGEVMIETSQVEKAALYPRPFIVTTAQGKVQALGTRFSLRVQDEHTQVAVYDGAVRLHPQRNGQDVQVVKSGQTATFTTQRCGQIETEKAEPAWVKGQLLADNQRLVDFVDELSRYRSGVIRCQPEVESLRFSGVFPLSDTDNILAALAEALPVQVRYFSRYWVQIAAR” the “soluble on expression in E. coli” value was “not soluble”.
For “MGSDKIHHHHHHMNEKTSVSSDRRDFWDGRAREFSEHAASTGYPRAFLRILKPRKSWTVLDMACGGGTIAIPLANRVKFITAVDFSMRMLEIVEQRCLAGKITNVKTLQGRWEDDWDDLGIGVHDVAIASRSLLSETAMDSIAKLNRAATKAVYISVAVGSGPFDWRLLEAADRERNTRPDYIFYYNLLYEMGIPANVSFIPESYRNSWESHEEAFEDQLWMFQGMTGEEEEKVRAYLREHLVWVKGHWQLPYSRNYYWAVLYWTKDREIGS”, the “soluble on expression in E. coli” value was “not soluble”.
For “MGSDKIHHHHHHMNFETVIGLEVHVELKTKSKIFSSSPTPFGAEANTQTSVIDLGYPGVLPVLNKEAVEFAMKAAMALNCEIATDTKFDRKNYFYPDNPKAYQISQFDKPIGENGWIEIEVGGKTKRIGITRLHLEEDAGKLTHTGDGYSLVDFNRQGTPLVEIVSEPDIRTPEEAYAYLEKLKSIIQYTGVSDCKMEEGSLRCDANISLRPIGQEEFGTKTELKNLNSFAFVQKGLEHEEKRQEQVLLSGGVIQQETRRYDEATKKTILMRVKEGSDDYRYFPEPDLVELYIDDEWKERVKASIPELPDERRKRYIEELGLPAYDAMVLTLTKEMADFFEETVQKGAEAKQASNWLMGEVSAYLNAEQKELADVALTPEGLAGMIKLIEKGTISSKIAKKVFKELIEKGGDAEKIVKEKGLVQISDEGVLLKLVTEALDNNPQSIEDFKNGKDRAIGFLVGQIMKASKGQANPPMVNKILLEEIKKR”, the “soluble on expression in E. coli” value was “not soluble”.
In the case of “MGSDKIHHHHHHMNGFCARLRAITHNERLKMKIAVLLSGGVDSSYSAYSLKEQGHELVGIYLKLHASEKKHDLYIKNAQKACEFLGIPLEVLDFQKDFKSAVYDEFINAYEEGQTPNPCALCNPLMKFGLALDHALKLGCEKIATGHYARVKEIDKISYIQEALDKTKDQSYFLYALEHEVIAKLVFPLGDLLKKDIKPLALNAMPFLGTLETYKESQEICFVEKSYIDTLKKHVEVEKEGVVKNLQGEVIGTHKGYMQYTIGKRKGFSIKGALEPHFVVGIDAKKNELVVGKKEDLATHSLKAKNKSLMKDFKDGEYFIKARYRSVPAKAHVSLKDEVIEVGFKEPFYGVAKGQALVVYKDDILLGGGVIV”, the “soluble on expression in E. coli” value is reported as “not soluble”.
In the case of “MGSDKIHHHHHHMNIAIIGSGLTGSLAAISLAKAGCRVDLYERLSDEELVNRDRTYAITHSSRKILEKLGIWSNLSRDLVPFQFLNVIDYELNKKFVFLTNDLPIPDQKYSAVGWIAEHKFIMLSILSVISNLENINKIPTSVIPNTNNYDLIVAADGSSSNTKKKLNTPSFHFKYDQMCITAKVLLRGVKSNEAFEILNSEGPFAVLPLGGDLFQVICSQSILKGTYNMNLSKSLFLDYLSTILPYGIEPDTIIDSPESFPIDFCLNYLFFSGKYIYLGETAHKIHPVGGQGLNLCWRDVDCLSKLLSIPLLKNNHSLIPLIYSISRSFDVLSISILTDSLVRYSRSNISIFYLPRLLVFFILKKSSLFRKYILNLMTNGF”, the “soluble on expression in E. coli” value is reported as “not soluble”.
For “MGSDKIHHHHHHMNILIVYGTTEGQTGKIAARTATHLRERGHQVELRDSAALASDLKLGHFDAFVIAASVHQEHHQETVTNFVFAHHEALSTKPSALISVSLSAALGDQKKDAQKYVDRFVSVTDWQPSMTLLLGGALRFNKYDYFQEQFVKFVVMKSGDPSPERDHEFTDWNALANFADRFLETAG”, the “soluble on expression in E. coli” value was “not soluble”.
In the case of “MGSDKIHHHHHHMNIQSIEPTPSPNTMKLTLDQTLPQGKSNNYTLKNKEEAPPFIQKLFEIEGVKGVYHVADFLAIERNAKVDWKVILPKVRAVFGDETGDGPQKEKPEVQEGYGEVQVFLQLFKGIPMQIKLSNGEEEVREGLPERFANAAFAAQQPDDNVVLERKWVEQGVRYGELADVAKDVAEEVSAAFSQERLDRLVNIAKGLVDKTQEQTEERFRKVTLADMEQDDWRDRYAALDKMDPTEEDLPVLEKALQDEKASIRRLATVYLGMIEKPVVLPLLEKALKDPSVTVRRTAGDCMSDIGDPAAIPAMIEALKDKNKLVRWRAAMFLYEVGDETAIDALRLAEDDPEFEVAMQVKMALERIVGGEEAKGSVWKQMTEEMAKGKNE”, the “soluble on expression in E. coli” value is reported as “not soluble”.
In the case of “MGSDKIHHHHHHMNIRSRTNNADDLAWVHLIERRKQVELWQFSCLRQSYTLELSPNVMEGVKPEGQLVMVQWSPSNDLQRVKVTLNIHEVTDQAAVNHHFKLVPAGCESIIIDIWGILGLIHDEALRRFYLAVLLNNELMGQFFNARASRSHHHNHACGLLEHSHEVAVTAAMLCWRYNVGPLSVGVAFIGGLLHDIGKIHLFYNADTRDGIAGSHESYNFMVLAEPLELLYRSSPKVFEALSSCLSVKIGRRSEAYIPASMVRLCDNLSMEVCHWRTAFADVPPHHWYAHSAMNDQWYKRLG”, the “soluble on expression in E. coli” value is reported as “not soluble”.
In the case of “MGSDKIHHHHHHMNIYDQLQAVEDRYEELGELLSDPDVVSDTKRFMELSREEANSRETVAVYREYKQVVQNIADAQEMIKDASGDPELEEMAKEELKNSKVAKEEYEEKLRFLLLPKDPNDDKNIILEIRGAAGGDEAALFAGDLLNMYQKYAENQGWKFEVMEASANGVGGLKEVVAMVSGQSVYSKLKYESGAHRVQRVPVTESQGRVHTSTATVLVMPEVEEVEYEIDPKDLRVDIYHASGAGGQNVNKVATAVRIIHLPTNIKVEMQEERTQQKNRDKAMKIIRARVADHFAQIAQDEQDAERKSTVGTGDRSERIRTYNFPQNRVTDHRIGLTLQKLDSILSGKLDEVIDALILYDQTQKLEELNK”, the “soluble on expression in E. coli” value is reported as “soluble”.
For “MGSDKIHHHHHHMNKDLFISSFDHRVYKKQPLAERMRPHSLNDVTGQSHLVGEKGLLSRIVAAGSIGSMIFWGPPGTGKTTVARLLALETNFAFEQVSAIFTGVAELKKIFESAQARFMSGSQTVLFVDEIHRFNRAQQDSFLPVMEDGTVILIGATTENPSFELNAALLSRARVLTFLPHDNESLGMLLKRAEALEEKTLPLDDNARDVLIDMSDGDARAALTLAEEVWSVARPGEIFDAAALRKIVQRRAPIYDKGRDGHYNLISALHKSVRGSDPDAALYYLARMFDAGEDPLYIGRRLVRMAVEDVGLADPQALVICNAAKDAYDYLGSPEGELALAQACLYVATAPKSNATYLAYKAAMRCARKNGSLPPPKHILNAPTKFMKEEGYGHGYCYDHDEPDAFSGQEYFPEKLGRQSYYQPVERGFEREIAKRLEWWKQLRKKRANQK”, the “soluble on expression in E. coli” value was “not soluble”.
In the case of “MGSDKIHHHHHHMNKKIIEKEILSKVIKKRKEGSNKTNYGRILLICGSQSFGGAAIMASKAVVYSGAGLVTLASDMINRAPFLSSVSEAMFLDYTRTDKLINSIAKSDVILIGSGLEDSDFSFSLLKLVFQNAKTNQLLVLDGTALSMIGKRNLNIPKKPTIIMTPHQGEWQRVSGLSISEQVPVQNYKKMVDLNIDFLVLKSSATEIYALQNPREYKELNIGGPFQAIGGMGDTLAGLIAGFLGQFKNDQISVIQAATYLHSYIARNLSQKQYVTLPTRISEQIPTEMKKIIQTSKY”, the “soluble on expression in E. coli” value is reported as “not soluble”.
